Data from article PMC5322562, “Dynamic regulation of GDP binding to G proteins revealed by magnetic field-dependent NMR relaxation analyses” (Nature Communications, 2017).

Biological target: human Gαi3 (residues 1–354), GDP-bound form (human, UniProt P08754 1-354)
Experiment: cell-based or functional assay

Sequence of human Gαi3 (residues 1–354), GDP-bound form (P08754 whole entry, the tested form may be a part): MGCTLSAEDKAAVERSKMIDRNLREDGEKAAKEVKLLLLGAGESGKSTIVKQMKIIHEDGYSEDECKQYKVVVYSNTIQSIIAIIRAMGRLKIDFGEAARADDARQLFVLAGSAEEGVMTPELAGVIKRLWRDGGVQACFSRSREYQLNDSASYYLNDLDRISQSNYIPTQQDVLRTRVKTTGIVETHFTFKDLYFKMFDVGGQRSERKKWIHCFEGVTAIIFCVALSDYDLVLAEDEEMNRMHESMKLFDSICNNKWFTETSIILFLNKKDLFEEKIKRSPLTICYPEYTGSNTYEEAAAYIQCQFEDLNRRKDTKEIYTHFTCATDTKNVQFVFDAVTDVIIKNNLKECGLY

GPLGSDIEGLVELLNRVQSSGAHDQRGLLRKEDLVLPEFLQ [GoLoco14 peptide (residues 496–531 of rat RGS14)]
IC50 of the inhibition of 3H-GDP dissociation from Gα-GDP (bound 3H-GDP after a 10 min incubation with 100 nM to 10 μM GoLoco14; 30 °C): 620 nM
